{"source": "patent US20220403022A1", "about": "(Merck KGaA, published 2022)", "key": {"[1]": {"target": "T1, cynomolgus monkey TIGIT on primary T cells (cynomolgus monkey, UniProt A0A7N9I9V4 89-312)", "T1 construct": "whole, on cells; also called cyno PBMCs; cynomolgus monkey spleen cells", "T1 sequence (A0A7N9I9V4 entry or part of it)": "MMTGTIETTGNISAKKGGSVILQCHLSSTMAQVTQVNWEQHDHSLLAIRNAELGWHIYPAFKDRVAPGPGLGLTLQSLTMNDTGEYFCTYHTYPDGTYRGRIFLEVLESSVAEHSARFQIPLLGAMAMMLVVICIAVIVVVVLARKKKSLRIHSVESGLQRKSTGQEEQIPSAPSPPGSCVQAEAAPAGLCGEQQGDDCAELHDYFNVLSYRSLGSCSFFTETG", "assay": "flow cytometry on CD3+ T cells of cyno PBMCs"}, "human TIGIT ECD P114G": {"target": "T2, human TIGIT ECD P114G (human, UniProt Q495A1 22-141)", "T2 construct": "point mutant expressed in E. coli", "T2 chain": "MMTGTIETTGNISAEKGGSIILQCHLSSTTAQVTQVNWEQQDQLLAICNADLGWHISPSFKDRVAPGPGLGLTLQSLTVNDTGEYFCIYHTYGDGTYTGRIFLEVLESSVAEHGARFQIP", "assay": "SPR, antibody captured on anti-human Fc, TIGIT ECD injected"}, "human TIGIT ECD T51A": {"target": "T3, human TIGIT ECD T51A (human, UniProt Q495A1 22-141)", "T3 construct": "point mutant expressed in E. coli", "T3 chain": "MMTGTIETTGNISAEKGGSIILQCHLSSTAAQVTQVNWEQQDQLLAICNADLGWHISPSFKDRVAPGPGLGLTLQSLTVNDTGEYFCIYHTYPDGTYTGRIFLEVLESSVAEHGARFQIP", "assay": "SPR, antibody captured on anti-human Fc, TIGIT ECD injected"}, "human TIGIT ECD H111A": {"target": "T4, human TIGIT ECD H111A (human, UniProt Q495A1 22-141)", "T4 construct": "point mutant expressed in E. coli", "T4 chain": "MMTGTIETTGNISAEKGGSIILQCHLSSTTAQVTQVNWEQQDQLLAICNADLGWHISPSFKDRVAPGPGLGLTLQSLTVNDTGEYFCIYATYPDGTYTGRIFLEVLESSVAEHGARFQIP", "assay": "SPR, antibody captured on anti-human Fc, TIGIT ECD injected"}, "[2]": {"target": "T5, human TIGIT ECD (wild-type, expressed in E. coli) (human, UniProt Q495A1 22-141)", "T5 construct": "also called huTIGIT; wild-type TIGIT", "T5 sequence": "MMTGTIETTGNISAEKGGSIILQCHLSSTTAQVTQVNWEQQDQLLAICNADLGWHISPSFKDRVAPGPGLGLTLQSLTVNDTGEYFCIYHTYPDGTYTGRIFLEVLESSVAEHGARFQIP", "assay": "SPR, antibody captured on anti-human Fc, TIGIT ECD injected"}, "human TIGIT ECD Q56A": {"target": "T6, human TIGIT ECD Q56A (human, UniProt Q495A1 22-141)", "T6 construct": "point mutant expressed in E. coli", "T6 chain": "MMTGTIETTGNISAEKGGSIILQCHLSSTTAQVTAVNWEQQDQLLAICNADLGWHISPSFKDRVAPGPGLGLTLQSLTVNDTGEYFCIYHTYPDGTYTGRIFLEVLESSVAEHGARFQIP", "assay": "SPR, antibody captured on anti-human Fc, TIGIT ECD injected"}, "human TIGIT ECD A71G": {"target": "T7, human TIGIT ECD A71G (human, UniProt Q495A1 22-141)", "T7 construct": "point mutant expressed in E. coli", "T7 chain": "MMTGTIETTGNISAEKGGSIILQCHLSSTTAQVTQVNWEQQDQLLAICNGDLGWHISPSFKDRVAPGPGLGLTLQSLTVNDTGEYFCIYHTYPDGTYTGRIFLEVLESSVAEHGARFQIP", "assay": "SPR, antibody captured on anti-human Fc, TIGIT ECD injected"}, "human TIGIT ECD T117A": {"target": "T8, human TIGIT ECD T117A (human, UniProt Q495A1 22-141)", "T8 construct": "point mutant expressed in E. coli", "T8 chain": "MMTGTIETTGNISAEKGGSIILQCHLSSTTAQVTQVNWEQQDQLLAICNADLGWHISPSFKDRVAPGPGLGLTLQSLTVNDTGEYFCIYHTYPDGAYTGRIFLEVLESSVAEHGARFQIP", "assay": "SPR, antibody captured on anti-human Fc, TIGIT ECD injected"}, "human TIGIT ECD N70A": {"target": "T9, human TIGIT ECD N70A (human, UniProt Q495A1 22-141)", "T9 construct": "point mutant expressed in E. coli", "T9 chain": "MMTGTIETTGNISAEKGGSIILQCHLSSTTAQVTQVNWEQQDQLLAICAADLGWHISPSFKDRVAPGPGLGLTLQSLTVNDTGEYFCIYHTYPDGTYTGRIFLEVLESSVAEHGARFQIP", "assay": "SPR, antibody captured on anti-human Fc, TIGIT ECD injected"}, "human TIGIT ECD T55A": {"target": "T10, human TIGIT ECD T55A (human, UniProt Q495A1 22-141)", "T10 construct": "point mutant expressed in E. coli", "T10 chain": "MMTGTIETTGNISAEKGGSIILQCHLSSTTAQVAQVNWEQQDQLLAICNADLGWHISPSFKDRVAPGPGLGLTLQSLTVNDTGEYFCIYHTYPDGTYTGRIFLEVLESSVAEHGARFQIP", "assay": "SPR, antibody captured on anti-human Fc, TIGIT ECD injected"}, "[3]": {"target": "T11, human TIGIT on cells (primary T cells, transfected HEK293 cells, Jurkat reporter cells, NK cells) (human, UniProt Q495A1 22-244)", "T11 construct": "also called TIGIT-transfected HEK293 cells", "T11 sequence": "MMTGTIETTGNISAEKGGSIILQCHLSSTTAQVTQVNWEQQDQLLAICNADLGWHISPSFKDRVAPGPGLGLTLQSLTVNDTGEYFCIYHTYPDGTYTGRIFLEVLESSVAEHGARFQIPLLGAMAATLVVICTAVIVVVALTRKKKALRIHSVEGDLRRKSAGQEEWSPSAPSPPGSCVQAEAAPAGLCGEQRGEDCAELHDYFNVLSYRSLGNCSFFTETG", "assay": "flow cytometry on CD3+ T cells of human PBMCs"}, "[4]": {"target": "T1, cynomolgus monkey TIGIT on primary T …", "assay": "target occupancy on CD3+ T cells of cynomolgus monkey spleen cells, unoccupied TIGIT detected with biotinylated 3963H03-12, flow cytometry, 6 donors"}}, "note": "Values joined by “and” are separate entries in the source; they are usually repeats but may differ in a detail not shown here. Equal entries are not always repeated.", "data": [{"binder": "3963H03-12 (antibody, human IgG1, kappa, V domains shown, also called anti-TIGIT H03-12; 39631H03-12) VH: QVQLVQSGSELKKPGASVKVSCKASGYTFTSYPMNWVRQAPGQGLEWMGWINTNTGNPTYAQGFTGRFVFSLDTSVSTAYLQISSLKAEDTAVYYCARVGGYSVDEYAFDVWGQGTLVTVSS VL: DIQLTQSPSFLSASVGDRVTITCRASQGISSYLAWYQQKPGKAPKLLIYAASTLQSGVPSRFSGSGSGTEFTLTISSLQPEDFATYYCQQLSSYPTFGGGTKVEIKR", "values": [{"measurement": "EC50", "setting": "[1]", "result": "0.132 µg/mL and 0.8 nM"}, {"measurement": "ΔΔGmut", "setting": "human TIGIT ECD P114G", "result": "> 3", "unit": "kcal/mol"}, {"measurement": "Kd", "setting": "human TIGIT ECD T51A", "result": 1.77, "unit": "nM"}, {"measurement": "ΔΔGmut", "setting": "human TIGIT ECD T51A", "result": -0.1, "unit": "kcal/mol"}, {"measurement": "Kd", "setting": "human TIGIT ECD H111A", "result": 30.9, "unit": "nM"}, {"measurement": "ΔΔGmut", "setting": "human TIGIT ECD H111A", "result": 1.6, "unit": "kcal/mol"}, {"measurement": "Kd", "setting": "[2]", "result": 2.08, "unit": "nM"}, {"measurement": "ΔΔGmut", "setting": "[2]", "result": 0, "unit": "kcal/mol"}, {"measurement": "Kd", "setting": "human TIGIT ECD Q56A", "result": 33.9, "unit": "nM"}, {"measurement": "ΔΔGmut", "setting": "human TIGIT ECD Q56A", "result": 1.65, "unit": "kcal/mol"}, {"measurement": "Kd", "setting": "human TIGIT ECD A71G", "result": 7.02, "unit": "nM"}, {"measurement": "ΔΔGmut", "setting": "human TIGIT ECD A71G", "result": 0.72, "unit": "kcal/mol"}, {"measurement": "Kd", "setting": "human TIGIT ECD T117A", "result": 1.58, "unit": "nM"}, {"measurement": "ΔΔGmut", "setting": "human TIGIT ECD T117A", "result": -0.17, "unit": "kcal/mol"}, {"measurement": "Kd", "setting": "human TIGIT ECD N70A", "result": 31.5, "unit": "nM"}, {"measurement": "ΔΔGmut", "setting": "human TIGIT ECD N70A", "result": 1.61, "unit": "kcal/mol"}, {"measurement": "ΔΔGmut", "setting": "human TIGIT ECD T55A", "result": "> 3", "unit": "kcal/mol"}, {"measurement": "EC50", "setting": "[3]", "result": "0.0852 µg/mL and 0.6 nM"}, {"measurement": "EC50", "setting": "[4]", "result": "0.0927 µg/mL and 0.6 nM"}]}]}
